B1: SET domain-containing protein 3 (Saccharomyces cerevisiae), P36124 (parent)
chain: MSVPNSKEQSLLDDASTLLLFSKGKKRAEEASKIGSKTDTIEHDESHEREKKGAIEMAAAALATASTVSLPLKKATEQSAAEAATSTAAKEETENQPQKQPQWPVPDSYIVDPDAGIITCICDLNDDDGFTIQCDHCNRWQHAICYGIKDIGMAPDDYLCNSCDPREVDINLARKIQQERINVKTVEPSSSNNSASNKNNGRDRASSTTISDVGDSFSTDQDNTNHRDKRRKRNPSNNSIDSKNESASVNSSDGLTSMPKKKEHFLSAKDAYGAIYLPLKDNVFKSDLIEPFLNKHMDDNWVIQYPHKTFKSVSIEVKPYADIAYSRTYPGFTKLGVYLKKDCIKGDFIQEILGELDFYKNYLTDPRNHYRIWGTAKRRVIFHSHWPIYIDARLSGNSTRYLRRSCQPNVELVTIKLQDTDNRNDKSSGRKSSRIKFVLRALRDISEDEELYIKWQWDSKHPILKLIKGMTIDSLDDLERYGLINSVETILSNGECGCGNNSKDCYLLKVKRYAQSLYKSVKSRGKMNNRYKLNEILNQYNCKKRREPPILHRLEEKAQNTIERAPILLNNFYRQKFLNRNNGPKIPQKNTIDSTNNPDDIAKPFKFALFAQHSSNISVPKKNETSEKPLIITKSTDYDESHITNIEELPIPVLLPINKTSRQTANDVEESQSKNEHKLSRTPSLSNFNKELSKEAQHSQAKTKEIMTEASVNSRRESTPESIMHLSDFSSSQLHSKKKLSFADYRKKLLK

Variants of: B1
Conditions: with h4_yeast HHF1, P02309

Row | effect of a mutation on the interaction | Variant
1 | decreasing interaction | W140A

— IntAct's records for PubMed 19379692
